# Results: PMC3295803
# What was measured:
# Assay in all cases: pressure-induced dissociation followed by light scattering; recombinant oligomers 0.2 mg/ml in 25 mM Tris pH 7.5, 25°C, 1 to 3000 bar in steps of 270 bar and back; without or with 2-mercaptoethanol
# [1] = target: AgB recombinant subunit rAgB8/1 (Echinococcus granulosus)
# [2] = target: AgB recombinant subunit rAgB8/2 (Echinococcus granulosus)
# [3] = target: AgB recombinant subunit rAgB8/3 (Echinococcus granulosus)
substance,measurement,setting,value
AgB recombinant subunit rAgB8/1,decrease of the light scattering signal after compression,[1],60%
AgB recombinant subunit rAgB8/2,decrease of the light scattering signal after compression,[2],30%
AgB recombinant subunit rAgB8/3,decrease of the light scattering signal after compression,[3],30%
